Earlier results as cited in article PMC11854596.
pKd: −log10 of the molar value.

Target: 53BP1 BRCT (Homo sapiens) (UniProt Q12888)
Sequence (Q12888 1714-1972): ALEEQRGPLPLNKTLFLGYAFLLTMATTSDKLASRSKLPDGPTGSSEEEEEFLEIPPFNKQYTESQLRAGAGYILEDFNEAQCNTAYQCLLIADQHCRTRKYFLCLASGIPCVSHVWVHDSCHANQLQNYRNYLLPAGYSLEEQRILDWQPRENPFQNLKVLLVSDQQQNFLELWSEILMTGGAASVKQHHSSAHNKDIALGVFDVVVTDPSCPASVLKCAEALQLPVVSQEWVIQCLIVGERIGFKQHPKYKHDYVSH

pKd: 5.57
Substance: γH2AX (from UniProt P16104)
